{"source": "paper PMC11947285", "about": "(Nature Communications, 2025)", "proteins": {"B1": {"name": "human XPR1 (Xenotropic and polytropic retrovirus receptor 1) (natural protein, UniProt Q9UBH6-1 1-696, looked up)", "chain": "MKFAEHLSAHITPEWRKQYIQYEAFKDMLYSAQDQAPSVEVTDEDTVKRYFAKFEEKFFQTCEKELAKINTFYSEKLAEAQRRFATLQNELQSSLDAQKESTGVTTLRQRRKPVFHLSHEERVQHRNIKDLKLAFSEFYLSLILLQNYQNLNFTGFRKILKKHDKILETSRGADWRVAHVEVAPFYTCKKINQLISETEAVVTNELEDGDRQKAMKRLRVPPLGAAQPAPAWTTFRVGLFCGIFIVLNITLVLAAVFKLETDRSIWPLIRIYRGGFLLIEFLFLLGINTYGWRQAGVNHVLIFELNPRSNLSHQHLFEIAGFLGILWCLSLLACFFAPISVIPTYVYPLALYGFMVFFLINPTKTFYYKSRFWLLKLLFRVFTAPFHKVGFADFWLADQLNSLSVILMDLEYMICFYSLELKWDESKGLLPNNSEESGICHKYTYGVRAIVQCIPAWLRFIQCLRRYRDTKRAFPHLVNAGKYSTTFFMVTFAALYSTHKERGHSDTMVFFYLWIVFYIISSCYTLIWDLKMDWGLFDKNAGENTFLREEIVYPQKAYYYCAIIEDVILRFAWTIQISITSTTLLPHSGDIIATVFAPLEVFRRFVWNFFRLENEHLNNCGEFRAVRDISVAPLNADDQTLLEQMMDQDDGVRNRQKNRSWKYNQSISLRRPRLASQSKARDTKVLIEDTDDEANT"}}, "target": "the molecule itself", "test": "cryo-EM structure"}
{"protein": "B1", "values": [{"measurement": "stoichiometry N", "result": 2}]}
